In PMC5767869:

Columns and labels:
[1] = target: α-RSV (clone B21M) human IgG1 F405L lacking hinge disulfides (C226S/C229S), half-Ab (human); assay: hydrophobic interaction chromatography; products of cFAE analysed for the share of bsAb
[2] = target: α-RSV (clone B21M) human IgG1 F405L lacking hinge disulfides (C226S/C229S), half-Ab (human); assay: FRET or BRET; Fab-arm exchange between donor (Alexa Fluor 488)- and acceptor (Alexa Fluor 594)-labelled IgG1C→S Abs, 200 nM each, PBS, 25 °C, no reductant; monoexponential exchange rate taken as the rate of dissociation of the full Ab (half-Ab dimer) into half-Abs
[3] = target: α-gp120 (clone b12) human IgG1 K409R lacking hinge disulfides (C226S/C229S), half-Ab (human); assay: as above
[4] = target: Alexa Fluor 488-labelled F405L half-Fc (IdeS fragment of α-RSV F405L IgG1WT) (human); assay: fluorescence correlation spectroscopy (FCS); constant 50 pM Alexa Fluor 488-labelled half-Fc, 1:3 or 1:4 dilutions of unlabelled half-Ab (IgG1C→S), equilibrated at room temperature overnight; diffusion times of all four half-Fc/half-Ab combinations globally fitted with one KD each for F405L homodimerisation, K409R homodimerisation and heterodimerisation
[5] = target: Alexa Fluor 488-labelled K409R half-Fc (IdeS fragment of α-gp120 K409R IgG1WT) (human); assay: as above

Chain of α-RSV (clone B21M) human IgG1 F405L lacking hinge disulfides (C226S/C229S), half-Ab (human) (heavy, as listed by the source, chain 1 of 2): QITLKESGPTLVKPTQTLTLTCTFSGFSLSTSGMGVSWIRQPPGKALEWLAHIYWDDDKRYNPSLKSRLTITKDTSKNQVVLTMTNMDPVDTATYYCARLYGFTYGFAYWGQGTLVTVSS
Chain of α-RSV (clone B21M) human IgG1 F405L lacking hinge disulfides (C226S/C229S), half-Ab (human) (light, as listed by the source, chain 2 of 2): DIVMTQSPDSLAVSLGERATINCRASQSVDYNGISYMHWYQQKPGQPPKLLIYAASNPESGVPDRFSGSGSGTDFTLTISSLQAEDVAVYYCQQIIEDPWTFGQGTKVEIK

α-gp120 (clone b12) human IgG1 K409R lacking hinge disulfides (C226S/C229S), half-Ab (antibody)
percent bsAb after cFAE [1]: > 90%
koff [2]: 0.000198 s⁻¹
koff [3]: 0.000673 s⁻¹
Kd [4]: 0.0656 nM
Kd [5]: 0.337 nM
